Measurements from patent US20050256058A1.
Square brackets hold non-standard residues; d marks the D form. * marks the point of attachment. Hydrocinnamoyl = O=C(CCc1ccccc1)*; CH:CH‑COOEt = CCOC(=O)/C=C/*; AOrn = not defined here; Cbz = O=C(OCc1ccccc1)*

How the values were obtained:
Assay in all cases: cell-based or functional assay
[1] = target: T1, schistosome legumain SmAE (Schistosoma mansoni asparaginyl endopeptidase) (Schistosoma mansoni), P09841
T1 chain: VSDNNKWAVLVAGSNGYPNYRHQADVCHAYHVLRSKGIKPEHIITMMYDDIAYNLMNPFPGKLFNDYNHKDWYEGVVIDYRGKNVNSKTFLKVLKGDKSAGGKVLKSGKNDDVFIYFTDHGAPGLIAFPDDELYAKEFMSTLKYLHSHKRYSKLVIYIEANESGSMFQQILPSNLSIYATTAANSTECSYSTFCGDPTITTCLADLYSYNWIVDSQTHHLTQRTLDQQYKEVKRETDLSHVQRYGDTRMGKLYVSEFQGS

Clostripain, P09870 = target: T2, Clostripain, P09870
T2 chain: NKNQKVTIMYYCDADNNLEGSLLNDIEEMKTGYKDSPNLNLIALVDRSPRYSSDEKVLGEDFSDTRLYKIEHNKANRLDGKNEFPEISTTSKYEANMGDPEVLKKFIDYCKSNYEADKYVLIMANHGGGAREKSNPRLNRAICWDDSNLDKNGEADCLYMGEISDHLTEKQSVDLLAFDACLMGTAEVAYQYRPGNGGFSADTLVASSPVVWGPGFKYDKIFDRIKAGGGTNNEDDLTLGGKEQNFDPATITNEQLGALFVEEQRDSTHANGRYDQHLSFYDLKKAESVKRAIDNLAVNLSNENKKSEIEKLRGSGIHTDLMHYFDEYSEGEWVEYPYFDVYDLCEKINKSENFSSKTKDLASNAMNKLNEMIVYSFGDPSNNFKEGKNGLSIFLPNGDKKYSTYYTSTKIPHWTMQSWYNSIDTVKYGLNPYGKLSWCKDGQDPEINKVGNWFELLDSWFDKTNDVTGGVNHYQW

Gingipain K = target: Gingipain K
Gingipain R = target: Gingipain R

| Binder | IC50 [1] | k2 (Clostripain, P09870) | k2 (Gingipain K) | k2 (Gingipain R) |
| --- | --- | --- | --- | --- |
| AAN (modifications not checked) [Cbz-Ala-Ala-AAsn-CH═CH-CON(CH3)Ph] | 60 nM | – | – | – |
| AAN (modifications not checked) [Cbz-Ala-Ala-AAsn-CH═CH-CONHBzl] | 1000 nM | – | – | – |
| LK (modifications not checked) [PhPr-Leu-ALys-CH═CH-CON(Me)CH2Ph] | – | 6000 M⁻¹ s⁻¹ | 1.36e+06 M⁻¹ s⁻¹ | 79 M⁻¹ s⁻¹ |
| Hydrocinnamoyl-Leu-[AOrn]-{CH:CH‑CON(CH2Ph)2} (reading uncertain) [PhPr-Leu-AOrn-CH═CH-CON(CH2Ph)2] | – | 541 M⁻¹ s⁻¹ | 61600 M⁻¹ s⁻¹ | 541 M⁻¹ s⁻¹ |
| Cbz-Ala-Ala-[AAsn]-{CH:CH‑CO‑indoline} [Cbz-Ala-Ala-AAsn-CH═CH-CO-indoline] | 70 nM | – | – | – |
| AAN (modifications not checked) [Cbz-Ala-Ala-AAsn-CH═CH-3-Py] | > 2000 nM | – | – | – |
| LK (modifications not checked) [PhPr-Leu-ALys-CH═CH-CON(CH2-1-naphthyl2] | – | 2250 M⁻¹ s⁻¹ | 1.89e+06 M⁻¹ s⁻¹ | 214 M⁻¹ s⁻¹ |
| Cbz-Ala-Ala-[AAsn]-{CH:CH‑CON(CH3)Bzl} [Cbz-Ala-Ala-AAsn-CH═CH-CON(CH3)Bzl] | 55 nM | – | – | – |
| AAN (modifications not checked) [Cbz-Ala-Ala-AAsn-CH═CH-CON(CH3)CH2CH2Ph] | 600 nM | – | – | – |
| Hydrocinnamoyl-Ala-[AOrn]-{CH:CH‑COOEt} (reading uncertain) [PhPr-Ala-AOrn-CH═CH-COOEt] | – | – | 632000 M⁻¹ s⁻¹ | 18 M⁻¹ s⁻¹ |
| AAN (modifications not checked) [Cbz-Ala-Ala-AAsn-CH═CH-CON(Bzl)Ph] | 70 nM | – | – | – |
| Hydrocinnamoyl-Leu-[AOrn]-{CH:CH‑COOEt} (reading uncertain; also: printed as PhPr-Leu-AOrn-CH═CH-COOEt) [PhPr-Leu-AOrn-CH═CH-COOEt] | – | 788 M⁻¹ s⁻¹ | 927000 M⁻¹ s⁻¹ | 32 M⁻¹ s⁻¹ |
| LK (modifications not checked) [PhPr-Leu-ALys-CH═CH-CON(Bzl)CH2-2-naphthyl] | – | 17500 M⁻¹ s⁻¹ | 811000 M⁻¹ s⁻¹ | 98 M⁻¹ s⁻¹ |
| LK (modifications not checked) [PhPr-Leu-ALys-CH═CH-CONHCH2Ph] | – | 1050 M⁻¹ s⁻¹ | 236000 M⁻¹ s⁻¹ | 20 M⁻¹ s⁻¹ |
| LK (modifications not checked) [PhPr-Leu-ALys-CH═CH-CON(CH2Ph)2] | – | 20000 M⁻¹ s⁻¹ | 2.13e+06 M⁻¹ s⁻¹ | 65 M⁻¹ s⁻¹ |
| LK (modifications not checked) [PhPr-Leu-ALys-CH═CH-COOCH2Ph] | – | 20500 M⁻¹ s⁻¹ | 2.51e+06 M⁻¹ s⁻¹ | 632 M⁻¹ s⁻¹ |
| AAN (modifications not checked) [Cbz-Ala-Ala-AAsn-CH═CH-CON(CH2-2-furyl)2] | 900 nM | – | – | – |
| AAN (modifications not checked) [Cbz-Ala-Ala-AAsn-CH═CH-CON(Bzl-4-F)Bzl] | 60 nM | – | – | – |
| AAN (modifications not checked) [Cbz-Ala-Ala-AAsn-CH═CH-CONHPh] | 700 nM | – | – | – |
| LR (modifications not checked) [PhPr-Leu-AArg-CH═CH-CON(CH2Ph)2] | – | 474000 M⁻¹ s⁻¹ | – | 804000 M⁻¹ s⁻¹ |
| LK (modifications not checked) [PhPr-Leu-ALys-CH═CH-COOEt] | – | 40800 M⁻¹ s⁻¹ | 3.28e+06 M⁻¹ s⁻¹ | 289 M⁻¹ s⁻¹ |
| AAN (modifications not checked) [Cbz-Ala-Ala-AAsn-CH═CH-CON(Bzl-4-OMe)Bzl] | 90 nM | – | – | – |

| Binder | IC50 [1] | k2 (Clostripain, P09870) | k2 (Gingipain K) | k2 (Gingipain R) |
| --- | --- | --- | --- | --- |
| AAN (modifications not checked) [Cbz-Ala-Ala-AAsn-CH═CH-CO-MePhe-N(CH3)CH2CH2Ph] | 750 nM | – | – | – |
| LK (modifications not checked) [PhPr-Leu-ALys-CH═CH-CON(Bzl)-p-CH2C6H4F] | – | 13800 M⁻¹ s⁻¹ | 801000 M⁻¹ s⁻¹ | 75 M⁻¹ s⁻¹ |
| Cbz-Ala-Ala-[AAsn]-{CH:CH‑CON(Bzl)‑1‑CH2‑Napth} [Cbz-Ala-Ala-AAsn-CH═CH-CON(Bzl)-1-CH2-Napth] | 62 nM | – | – | – |
| AAN (modifications not checked) [Cbz-Ala-Ala-AAsn-CH═CH-CON(nBu)2] | 550 nM | – | – | – |
| LK (modifications not checked) [PhPr-Leu-ALys-CH═CH-CON(4H-quinoline)] | – | 326 M⁻¹ s⁻¹ | 252000 M⁻¹ s⁻¹ | 73 M⁻¹ s⁻¹ |
| Hydrocinnamoyl-Leu-[AOrn]-{CH:CH‑CONHCH2Ph} (reading uncertain) [PhPr-Leu-AOrn-CH═CH-CONHCH2Ph] | – | – | 24700 M⁻¹ s⁻¹ | 71 M⁻¹ s⁻¹ |
| LK (modifications not checked) [PhPr-Leu-ALys-CH═CH-CON(Me)CH2-1-naphthyl] | – | 639 M⁻¹ s⁻¹ | 975000 M⁻¹ s⁻¹ | 576 M⁻¹ s⁻¹ |
| AAN (modifications not checked) [Cbz-Ala-Ala-AAsn-CH═CH-CO-tetrahydroisoquinoline] | 200 nM | – | – | – |
| AAN (modifications not checked) [Cbz-Ala-Ala-AAsn-CH═CH-CONH-Bzl-4-F] | 800 nM | – | – | – |
| Cbz-Ala-Ala-[AAsn]-{CH:CH‑COOEt} [Cbz-Ala-Ala-AAsn-CH═CH-COOEt] | 31 nM | – | – | – |
| AAN (modifications not checked) [Cbz-Ala-Ala-AAsn-CH═CH-CO-Pip] | 1000 nM | – | – | – |
| AAN (modifications not checked) [Cbz-Ala-Ala-AAsn-CH═CH-CO-(4-Ph-Py)] | 750 nM | – | – | – |
| LR (modifications not checked) [PhPr-Leu-AArg-CH═CH-CONHCH2Ph] | – | 287000 M⁻¹ s⁻¹ | – | 555000 M⁻¹ s⁻¹ |
| LR (modifications not checked) [PhPr-Leu-AArg-CH═CH-COOEt] | – | 69600 M⁻¹ s⁻¹ | 1580 M⁻¹ s⁻¹ | – |
| AAN (modifications not checked) [Cbz-Ala-Ala-AAsn-CH═CH-COOBzl] | 38 nM | – | – | – |
| Cbz-Ala-Ala-[AAsn]-{CH:CH‑CON(Bzl)‑2‑CH2‑Napth} [Cbz-Ala-Ala-AAsn-CH═CH-CON(Bzl)-2-CH2-Napth] | 70 nM | – | – | – |
| AAN (modifications not checked) [Cbz-Ala-Ala-AAsn-CH═CH-2-furyl] | > 2000 nM | – | – | – |
| AAN (modifications not checked) [Biotinyl-Ala-Ala-AAsn-CH═CH-COOEt] | 10 nM | – | – | – |
| Cbz-Ala-Ala-[AAsn]-{CH:CH‑CONHCH2CH2Ph} [Cbz-Ala-Ala-AAsn-CH═CH-CONHCH2CH2Ph] | 600 nM | – | – | – |
| AAN (modifications not checked) [Cbz-Ala-Ala-AAsn-CH═CH-CO-tetrahydroquinoline] | 70 nM | – | – | – |
| AAN (modifications not checked) [Cbz-Ala-Ala-AAsn-CH═CH-CO-isoindoline] | 300 nM | – | – | – |
| Cbz-Ala-Ala-[AAsn]-{CH:CH‑CON(Bzl)2} [Cbz-Ala-Ala-AAsn-CH═CH-CON(Bzl)2] | 45 nM | – | – | – |
